# Measured values: PMC6160384, “TDP-43 regulates cancer-associated microRNAs”
# Target: TDP-43 (His-TDP-43 wild type) (UniProt Q13148 1-414)
# Test: EMSA; EMSA: LightShift Chemiluminescent RNA EMSA Kit (Thermo), per manufacturer; buffer, salt, pH and temperature not stated
# Conditions: protein: recombinant; tags: His tag; text says C-terminal (pEASY-E2); label: biotin
# Sequence of TDP-43 (His-TDP-43 wild type) (Q13148 whole entry): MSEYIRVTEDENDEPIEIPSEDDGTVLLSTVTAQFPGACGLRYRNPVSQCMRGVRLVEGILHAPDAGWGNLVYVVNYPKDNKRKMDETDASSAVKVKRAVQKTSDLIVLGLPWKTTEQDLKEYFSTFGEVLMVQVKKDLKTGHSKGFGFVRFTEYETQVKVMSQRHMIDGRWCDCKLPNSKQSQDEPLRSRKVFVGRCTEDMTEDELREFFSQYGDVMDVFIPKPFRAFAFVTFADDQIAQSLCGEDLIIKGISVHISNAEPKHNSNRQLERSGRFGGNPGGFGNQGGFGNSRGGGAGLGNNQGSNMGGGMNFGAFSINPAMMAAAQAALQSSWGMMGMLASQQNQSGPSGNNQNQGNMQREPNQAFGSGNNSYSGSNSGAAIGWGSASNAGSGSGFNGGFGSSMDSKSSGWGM
binder,measurement,value
CACGCUCAUGCACACACCCACA (ssRNA) [miR-574-3p],binding result,no binding
AUGCACCUGGGCAAGGAUUCUG (ssRNA) [miR-500a-3p],binding result,binds
AGCUCGGUCUGAGGCCCCUCAGU (ssRNA) [miR-423-3p],binding result,binds
